On the set-up of data set [1]: method as in PMID 28721307. To be noted: cited from earlier work.
The subject of data set [2] is LNCaP xenografts. Kind of data set: Intraoperative / ex vivo fluorescence imaging of LNCaP xenografts. Type of data set: in vivo, CB17 SCID mice. The settings on record: 2 nmol, 1 h after injection, Dino-Lite microscope and Firefly laparoscope. The procedure:
Fluorescence imaging (intraoperative/ex vivo) of LNCaP xenografts in CB17 SCID mice (1 h after injection) was performed using 2 different instrumental setups: a handheld digital microscope for Cy5 (Dino-Lite Edge AM4115T-DFRW; AnMo Electronics Corp.) and DinoCapture 2.0 software (AnMo Electronics Corp.); and a 0°Firefly laparoscope that is compatible with the surgical robotic da Vinci Si system (Intuitive Surgical Inc.), using a fluid light cable for target illumination (495 FR; KARL STORZ Endoskope GmbH&Co.KG) and a bandpass filter (Edmund Optics Inc.) to isolate the Cy5 emission. Images were captured from the unprocessed Firefly video feed. For instrumental details see supplemental data.

The target of data set [3] is human serum albumin (HSA) (Homo sapiens, UniProt P02768). The data set is described as follows: HSA binding by gradient high-performance liquid chromatography method. The settings on record: plasma. Type of data set: in vitro ADME. The procedure: The lipophilicity of ^68Ga- and ^177Lu-PSMA-I&F was determined via a modified shake-flask method as previously described ([38]). Plasma protein binding of both tracers was determined using 2 alternative methods, that is, incubation in fresh human plasma and subsequent ultrafiltration ([20]) and a previously established gradient high-performance liquid chromatography method for the quantification of human serum albumin (HSA) binding ([41],[42]).

Data set [4] has as its system PSMA-positive LNCaP cells. Kind of data set: Fluorescence microscopy of ligand internalization, PSMA-positive cells. The data set is classed as cell-based. To be noted: 25 nM, 60 min, 37°C. As for the experimental part: Competitive binding experiments (IC50) were performed in analogy to a previously published protocol ([38]) using LNCaP cells and (^125I-BA)KuE as a standard radioligand. Internalization kinetics of ^68Ga-PSMA-I&F and ^177Lu-PSMA-I&F (2 nM) were investigated in dual-tracer internalization assays using PSMA-expressing LNCaP cells and (^125I-BA)KuE (0.1 nM) as an internal reference. To differentiate between membrane-bound and internalized activity, an acid wash (50 mM NaOAc in saline, pH 4.5) was performed prior to lysis of the cells (1N NaOH) and quantification of internalized activity (lysate) using a γ-counter. […] For fluorescence microscopy, PSMA-positive LNCaP and PSMA-negative PC3 cells (seeded on glass cover slips) were incubated with the respective PSMA-I&F analog (100 or 25 nM) in the absence (total binding/internalization) or presence (nonspecific binding/internalization) of 10 μM 2-PMPA at 37 °C for 5 or 60 min. […] Ligand internalization was visualized using a Keyence BZ-9000 fluorescence microscope equipped with Cy5 (620/60 nm excitation, 700/75 nm emission), DAPI-BP (370/50 nm excitation, 447/60 nm emission), and GFP-BP (472.5/30 nm excitation, 520/35 nm emission) filters.

On the set-up of data set [5]: method as in earlier work. To be noted: cited from earlier work.
Data set [6] relates to LNCaP tumors. To be noted: in vivo; cited from earlier work.
Data set [7] concerns tumor xenograft (PC-3 PIP). To be noted: in vivo; cited from earlier work.

Consider five molecules from paper PMC6354225, “Synthesis and Preclinical Characterization of the PSMA-Targeted Hybrid Tracer PSMA-I&F for Nuclear and Fluorescence Imaging of Prostate Cancer” (Journal of Nuclear Medicine, 2019).

The fraction unbound is the share of the substance not bound to proteins or other matrix. Higher therefore signals much free substance.

human serum albumin (HSA), sequence (P02768 25-609): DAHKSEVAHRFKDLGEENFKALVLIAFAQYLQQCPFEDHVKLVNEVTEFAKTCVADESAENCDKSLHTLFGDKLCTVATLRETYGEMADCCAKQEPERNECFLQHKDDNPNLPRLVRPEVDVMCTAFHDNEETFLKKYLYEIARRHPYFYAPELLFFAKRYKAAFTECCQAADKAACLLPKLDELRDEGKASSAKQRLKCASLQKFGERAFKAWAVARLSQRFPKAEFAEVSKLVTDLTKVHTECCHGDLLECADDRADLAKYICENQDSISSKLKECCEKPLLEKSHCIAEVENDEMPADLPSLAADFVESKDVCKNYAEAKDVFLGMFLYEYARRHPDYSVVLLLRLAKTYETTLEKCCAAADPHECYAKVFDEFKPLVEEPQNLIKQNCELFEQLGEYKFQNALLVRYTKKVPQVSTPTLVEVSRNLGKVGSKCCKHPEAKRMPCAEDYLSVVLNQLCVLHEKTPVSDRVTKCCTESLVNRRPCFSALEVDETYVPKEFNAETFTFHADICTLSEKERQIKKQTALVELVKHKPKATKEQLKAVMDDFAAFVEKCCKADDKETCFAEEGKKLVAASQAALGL

Consider `CC1(C)C(/C=C/C=C/C=C/C=C2\N(CCCCS(=O)(=O)O)c3ccc4ccccc4c3C2(C)C)=[N+](CCCCS(=O)(=O)[O-])c2ccc3ccccc3c21` [ICG, indocyanine green], for which the “brightness (quantum yield)” value in data set [1] is recorded as 0.3%.

Consider `C[N+]1=C(/C=C/C=C/C=C2/N(CCCCCC(=O)NCCCC[C@@H](NC(=O)CCC(C(=O)O)N3CCN(CC(=O)O)CCN(CC(=O)O)CCN(CC(=O)O)CC3)C(=O)N[C@H](Cc3ccc(O)c(I)c3)C(=O)N[C@H](Cc3ccc(O)c(I)c3)C(=O)N[C@H](CCCCNC(=O)CCCCCCC(=O)NCCCC[C@H](NC(=O)N[C@@H](CCC(=O)O)C(=O)O)C(=O)O)C(=O)O)c3ccc(S(=O)(=O)O)cc3C2(C)C)C(C)(C)c2cc(S(=O)(=O)[O-])ccc21` (stereo partly drawn) [PSMA-I&F, DOTAGA-D-Lys(Nε-Sulfo-Cy5)-D-(3-iodo)Tyr-D-(3-iodo)Tyr-D-Lys(Nε-Sub-KuE)], for which the “Intraoperative and ex vivo fluorescence detection of tumor xenograft” value in data set [2] is listed as “sensitive in vivo detection of the PSMA-I&F–positive tumor xenograft with good contrast to the surrounding tissue”. This molecule also had a fraction unbound in data set [3] of 0.017. In data set [4], the “Comparative ligand internalization by fluorescence microscopy” value is “highly efficient and identical ligand internalization”.

`CN1/C(=C/C=C/C=C/C2=[N+](CCCCCC(=O)O)c3ccc(S(=O)(=O)[O-])cc3C2(C)C)C(C)(C)c2cc(S(=O)(=O)O)ccc21` [Sulfo-Cy5]: the brightness in data set [5] is 51 × 10^3 M^−1⋅cm^−1.

On to IRDye800CW-^68Ga-HBED-CC-KuE, for which, in data set [6], the tumor-to-blood ratio was 4.5, the tumor-to-intestines ratio was 5.7, the tumor-to-liver ratio is recorded as 4.9 and the tumor-to-muscle ratio is listed as 4.8.

Consider ^111In-DOTA-Lys(Nε-IRDye800CW)-Sub-KuE, for which, in data set [7], the “Increase of tracer uptake in the excretion organs and the tumor xenograft (PC-3 PIP) compared with parent compound” value is reported as 2-4 factor; the tumor-to-blood ratio was 1.4; the tumor-to-intestines ratio was 7.7; the tumor-to-liver ratio was 5.8. Besides, the tumor-to-muscle ratio in data set [7] is listed as 11.6.
